Test results reported in patent US20180318386A1, “PEPTIDES AND METHODS OF TREATING ENDOMETRIOSIS USING THE SAME” (BIOINCEPT, LLC, priority 2014, published 2018).

Tests used:
[1] = target: Transitional endoplasmic reticulum ATPase (human) (UniProt P55072); assay: PIF affinity resin pull-down, CD14+ cell lysate, LC-MS/MS count
Protein S100-A8 (human) = Protein S100-A8 (human) (UniProt P05109); assay: as above
[2] = target: Myeloid cell nuclear differentiation antigen (human) (UniProt P41218); assay: as above
[3] = target: Heat shock protein HSP 90-beta (human) (UniProt P08238); assay: as above
Annexin A1 (human) = Annexin A1 (human) (UniProt P04083); assay: as above
[4] = target: Serum deprivation-response protein (human) (UniProt O95810); assay: PIF affinity resin pull-down, CD4+ cell lysate, LC-MS/MS count
[5] = target: Actin, cytoplasmic 1 (human) (UniProt P60709); assay: as above
Cofilin-1 (human) = Cofilin-1 (human) (UniProt P23528); assay: as above
Thrombospondin-4 (human) = Thrombospondin-4 (human) (UniProt P35443); assay: as above
[6] = target: Serine/arginine-rich-splicing factor 2 (human) (UniProt Q01130); assay: as above
[7] = target: Acidic leucine-rich nuclear phosphoprotein 32 family member A (human) (UniProt P39687); assay: as above
[8] = target: Serine/arginine-rich-splicing factor 1 (human) (UniProt Q07955); assay: as above
Thrombospondin-1 (human) = Thrombospondin-1 (human) (UniProt P07996); assay: as above
[9] = target: Isoform 2 of Heat shock protein HSP 90-alpha (human) (UniProt P07900); assay: as above
[10] = target: Isoform 2 of Protein SET (human) (UniProt Q01105); assay: as above
[11] = target: 14-3-3 protein zeta/delta (human) (UniProt P63104); assay: as above
[12] = target: Glucosidase 2 subunit beta (human) (UniProt P14314); assay: as above
Calreticulin (human) = Calreticulin (human) (UniProt P27797); assay: as above
Thymosin alpha-1 (human) = Thymosin alpha-1 (human) (UniProt P06454); assay: as above
Serum albumin (human) = Serum albumin (human) (UniProt P02768); assay: as above
[13] = target: Thrombin light chain (human) (UniProt P00734); assay: as above
Nucleolin (human) = Nucleolin (human) (UniProt P19338); assay: as above
[14] = target: Hepatoma-derived growth factor (human) (UniProt P51858); assay: as above
[15] = target: Cartilage oligomeric matrix protein (human) (UniProt P49747); assay: as above

Sequence of Thrombospondin-4 (human) (P35443 27-961 limits assumed): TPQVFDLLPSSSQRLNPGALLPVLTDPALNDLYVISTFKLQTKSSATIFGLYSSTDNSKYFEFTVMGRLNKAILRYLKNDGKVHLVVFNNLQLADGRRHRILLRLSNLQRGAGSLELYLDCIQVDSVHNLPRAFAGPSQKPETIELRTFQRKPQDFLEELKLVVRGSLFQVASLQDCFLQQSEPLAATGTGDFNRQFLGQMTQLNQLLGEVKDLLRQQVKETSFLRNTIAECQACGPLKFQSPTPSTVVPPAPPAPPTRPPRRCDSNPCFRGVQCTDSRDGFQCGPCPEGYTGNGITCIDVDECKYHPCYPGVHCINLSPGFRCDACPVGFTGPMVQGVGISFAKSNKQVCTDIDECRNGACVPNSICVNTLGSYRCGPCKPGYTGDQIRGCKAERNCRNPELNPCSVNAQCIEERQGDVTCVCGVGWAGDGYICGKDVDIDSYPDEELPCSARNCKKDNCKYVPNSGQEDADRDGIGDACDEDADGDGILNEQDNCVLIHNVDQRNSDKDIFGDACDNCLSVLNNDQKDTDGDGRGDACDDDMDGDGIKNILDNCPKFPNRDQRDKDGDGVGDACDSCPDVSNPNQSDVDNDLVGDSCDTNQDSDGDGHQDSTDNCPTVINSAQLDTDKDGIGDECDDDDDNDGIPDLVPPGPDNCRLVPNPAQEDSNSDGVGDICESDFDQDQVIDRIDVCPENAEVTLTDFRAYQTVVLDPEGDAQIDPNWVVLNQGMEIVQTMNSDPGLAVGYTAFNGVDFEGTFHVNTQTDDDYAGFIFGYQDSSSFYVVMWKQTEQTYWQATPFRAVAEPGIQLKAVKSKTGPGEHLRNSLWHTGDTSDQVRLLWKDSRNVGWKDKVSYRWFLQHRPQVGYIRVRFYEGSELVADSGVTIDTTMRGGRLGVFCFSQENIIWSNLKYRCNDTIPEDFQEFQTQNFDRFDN
Sequence of 14-3-3 protein zeta/delta (human) (P63104 whole entry, stated change not applied): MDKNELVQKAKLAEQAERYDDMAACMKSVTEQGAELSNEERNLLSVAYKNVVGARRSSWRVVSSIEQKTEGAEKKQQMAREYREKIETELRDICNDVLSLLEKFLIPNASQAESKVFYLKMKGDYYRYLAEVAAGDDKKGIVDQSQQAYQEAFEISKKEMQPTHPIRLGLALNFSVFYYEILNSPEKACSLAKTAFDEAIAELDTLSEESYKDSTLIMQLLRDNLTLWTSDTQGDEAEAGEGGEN
Sequence of Heat shock protein HSP 90-beta (human) (P08238 2-724 limits assumed): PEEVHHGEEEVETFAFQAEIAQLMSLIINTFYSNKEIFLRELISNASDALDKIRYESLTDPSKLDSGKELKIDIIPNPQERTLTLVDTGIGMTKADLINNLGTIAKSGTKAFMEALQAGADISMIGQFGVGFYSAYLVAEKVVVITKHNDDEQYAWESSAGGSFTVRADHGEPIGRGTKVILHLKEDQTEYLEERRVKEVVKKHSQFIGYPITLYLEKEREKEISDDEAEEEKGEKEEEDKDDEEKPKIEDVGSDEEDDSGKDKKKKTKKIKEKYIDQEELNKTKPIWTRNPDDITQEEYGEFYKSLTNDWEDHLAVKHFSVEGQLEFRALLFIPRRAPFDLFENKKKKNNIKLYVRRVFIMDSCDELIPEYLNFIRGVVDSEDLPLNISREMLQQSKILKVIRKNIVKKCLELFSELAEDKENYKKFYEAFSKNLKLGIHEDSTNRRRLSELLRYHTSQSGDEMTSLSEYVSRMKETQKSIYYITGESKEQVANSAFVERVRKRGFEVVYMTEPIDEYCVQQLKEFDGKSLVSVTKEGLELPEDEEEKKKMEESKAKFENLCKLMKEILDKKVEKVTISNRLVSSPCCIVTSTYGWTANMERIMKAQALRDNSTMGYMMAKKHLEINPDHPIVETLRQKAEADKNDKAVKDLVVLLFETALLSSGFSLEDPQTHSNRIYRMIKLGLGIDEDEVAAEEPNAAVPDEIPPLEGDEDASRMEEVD
Sequence of Nucleolin (human) (P19338 2-710 limits assumed): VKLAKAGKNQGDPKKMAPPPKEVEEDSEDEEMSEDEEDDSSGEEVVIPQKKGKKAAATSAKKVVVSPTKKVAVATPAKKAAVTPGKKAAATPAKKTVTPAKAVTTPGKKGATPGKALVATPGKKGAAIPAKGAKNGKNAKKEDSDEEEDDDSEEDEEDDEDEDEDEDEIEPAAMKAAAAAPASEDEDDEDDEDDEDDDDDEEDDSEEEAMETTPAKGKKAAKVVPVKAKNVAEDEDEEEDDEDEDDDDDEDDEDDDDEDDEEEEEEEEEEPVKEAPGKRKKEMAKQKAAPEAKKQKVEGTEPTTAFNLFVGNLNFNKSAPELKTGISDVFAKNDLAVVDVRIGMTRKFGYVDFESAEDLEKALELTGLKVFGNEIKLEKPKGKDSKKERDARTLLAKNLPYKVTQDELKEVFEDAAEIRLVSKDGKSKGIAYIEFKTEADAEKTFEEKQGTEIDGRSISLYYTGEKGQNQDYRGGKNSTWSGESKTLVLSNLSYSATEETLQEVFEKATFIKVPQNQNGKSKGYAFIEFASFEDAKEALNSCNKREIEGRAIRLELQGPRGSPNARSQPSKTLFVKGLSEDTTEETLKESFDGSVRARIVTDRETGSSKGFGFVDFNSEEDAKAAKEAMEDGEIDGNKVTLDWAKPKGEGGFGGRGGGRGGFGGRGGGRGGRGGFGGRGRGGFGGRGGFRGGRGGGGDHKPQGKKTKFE
Sequence of Serine/arginine-rich-splicing factor 1 (human) (Q07955 2-248 limits assumed): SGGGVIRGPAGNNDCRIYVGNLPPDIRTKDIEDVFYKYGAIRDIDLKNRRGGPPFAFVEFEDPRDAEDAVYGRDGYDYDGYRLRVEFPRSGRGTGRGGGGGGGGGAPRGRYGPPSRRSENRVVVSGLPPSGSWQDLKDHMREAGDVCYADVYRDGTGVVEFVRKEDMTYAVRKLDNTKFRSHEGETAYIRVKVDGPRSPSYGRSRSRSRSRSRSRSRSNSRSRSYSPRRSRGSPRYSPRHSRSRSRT
Sequence of Acidic leucine-rich nuclear phosphoprotein 32 family member A (human) (P39687 whole entry): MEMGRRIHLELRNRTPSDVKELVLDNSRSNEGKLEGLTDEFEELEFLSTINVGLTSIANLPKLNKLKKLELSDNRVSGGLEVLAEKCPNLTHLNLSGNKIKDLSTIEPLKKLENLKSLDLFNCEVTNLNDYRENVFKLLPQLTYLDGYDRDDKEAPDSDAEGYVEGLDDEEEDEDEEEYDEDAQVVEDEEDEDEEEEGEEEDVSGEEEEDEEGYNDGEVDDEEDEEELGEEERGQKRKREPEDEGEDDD
Sequence of Cofilin-1 (human) (P23528 2-166 limits assumed): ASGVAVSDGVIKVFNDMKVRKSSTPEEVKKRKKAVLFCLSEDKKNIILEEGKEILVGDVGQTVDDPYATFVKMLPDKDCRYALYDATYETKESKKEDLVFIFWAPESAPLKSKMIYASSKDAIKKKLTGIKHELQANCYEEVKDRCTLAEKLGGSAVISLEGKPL
Sequence of Calreticulin (human) (P27797 18-417 limits assumed): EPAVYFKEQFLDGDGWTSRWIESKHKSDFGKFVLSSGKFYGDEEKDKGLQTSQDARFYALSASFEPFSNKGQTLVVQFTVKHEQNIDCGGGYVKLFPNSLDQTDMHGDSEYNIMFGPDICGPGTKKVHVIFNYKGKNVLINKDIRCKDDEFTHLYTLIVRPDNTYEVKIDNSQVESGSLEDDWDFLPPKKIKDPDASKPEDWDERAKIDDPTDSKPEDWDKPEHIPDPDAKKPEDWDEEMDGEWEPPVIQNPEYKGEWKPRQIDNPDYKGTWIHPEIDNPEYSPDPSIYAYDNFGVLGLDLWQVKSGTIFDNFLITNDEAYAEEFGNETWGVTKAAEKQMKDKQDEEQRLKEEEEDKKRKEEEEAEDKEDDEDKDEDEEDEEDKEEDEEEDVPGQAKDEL
Sequence of Hepatoma-derived growth factor (human) (P51858 whole entry): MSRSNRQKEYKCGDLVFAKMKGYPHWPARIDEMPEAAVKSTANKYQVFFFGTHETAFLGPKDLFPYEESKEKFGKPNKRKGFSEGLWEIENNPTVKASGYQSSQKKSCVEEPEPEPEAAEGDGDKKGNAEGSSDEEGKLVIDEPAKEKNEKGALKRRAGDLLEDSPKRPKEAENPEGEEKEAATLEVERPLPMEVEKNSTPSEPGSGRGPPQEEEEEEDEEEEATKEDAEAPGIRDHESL
Sequence of Thymosin alpha-1 (human) (P06454 other isoform, or with tags, fused parts or gaps limits assumed): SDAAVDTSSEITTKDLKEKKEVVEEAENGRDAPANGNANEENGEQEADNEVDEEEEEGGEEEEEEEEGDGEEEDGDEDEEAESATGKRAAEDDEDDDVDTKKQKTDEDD
Sequence of Transitional endoplasmic reticulum ATPase (human) (P55072 2-806 limits assumed): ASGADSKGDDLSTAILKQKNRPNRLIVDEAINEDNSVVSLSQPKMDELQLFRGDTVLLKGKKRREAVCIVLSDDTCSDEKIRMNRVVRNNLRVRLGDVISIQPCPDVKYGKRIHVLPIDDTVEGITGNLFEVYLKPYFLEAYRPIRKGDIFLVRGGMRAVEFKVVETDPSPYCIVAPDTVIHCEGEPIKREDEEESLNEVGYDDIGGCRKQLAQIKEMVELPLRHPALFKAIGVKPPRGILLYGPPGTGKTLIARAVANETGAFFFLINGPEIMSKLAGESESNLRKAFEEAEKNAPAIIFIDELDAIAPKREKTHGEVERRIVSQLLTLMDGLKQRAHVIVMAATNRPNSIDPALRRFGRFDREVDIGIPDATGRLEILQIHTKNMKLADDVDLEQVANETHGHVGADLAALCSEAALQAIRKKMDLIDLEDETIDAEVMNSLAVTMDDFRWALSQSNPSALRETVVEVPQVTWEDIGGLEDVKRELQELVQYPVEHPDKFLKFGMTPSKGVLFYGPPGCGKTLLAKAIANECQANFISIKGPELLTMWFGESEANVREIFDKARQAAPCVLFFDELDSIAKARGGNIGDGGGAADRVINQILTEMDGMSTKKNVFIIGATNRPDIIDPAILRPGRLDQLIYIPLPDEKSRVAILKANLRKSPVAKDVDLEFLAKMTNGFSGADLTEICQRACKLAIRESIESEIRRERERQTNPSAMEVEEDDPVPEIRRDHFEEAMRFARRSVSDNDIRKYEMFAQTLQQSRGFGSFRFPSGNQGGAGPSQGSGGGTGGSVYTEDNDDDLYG
Sequence of Protein S100-A8 (human) (P05109 whole entry): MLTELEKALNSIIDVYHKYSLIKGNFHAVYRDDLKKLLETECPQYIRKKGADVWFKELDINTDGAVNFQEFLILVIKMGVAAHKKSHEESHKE

Substance: PIF15 affinity resin (Cys-C6 spacer-PIF15 conjugated to agarose) (peptide)
- Ave [1]: 3
- Inject 1 [1]: 3
- Inject 2 [1]: 2
- Inject 3 [1]: 3
- Ave (Protein S100-A8 (human)): 2
- Inject 1 (Protein S100-A8 (human)): 2
- Inject 2 (Protein S100-A8 (human)): 1
- Inject 3 (Protein S100-A8 (human)): 2
- Ave [2]: 2
- Inject 1 [2]: 2
- Inject 2 [2]: 2
- Inject 3 [2]: 2
- Ave [3]: 1
- Inject 1 [3]: 2
- Inject 2 [3]: 1
- Inject 3 [3]: 1
- Ave (Annexin A1 (human)): 1
- Inject 1 (Annexin A1 (human)): 0
- Inject 2 (Annexin A1 (human)): 0
- Inject 3 (Annexin A1 (human)): 2
- Ave [4]: 2
- Inject 1 [4]: 2
- Inject 2 [4]: 2
- Inject 3 [4]: 2
- Ave [5]: 2
- Inject 1 [5]: 2
- Inject 2 [5]: 2
- Inject 3 [5]: 2
- Ave (Cofilin-1 (human)): 1
- Inject 1 (Cofilin-1 (human)): 1
- Inject 2 (Cofilin-1 (human)): 1
- Inject 3 (Cofilin-1 (human)): 1
- Ave (Thrombospondin-4 (human)): 3
- Inject 1 (Thrombospondin-4 (human)): 3
- Inject 2 (Thrombospondin-4 (human)): 3
- Inject 3 (Thrombospondin-4 (human)): 3
- Ave [6]: 2
- Inject 1 [6]: 1
- Inject 2 [6]: 2
- Inject 3 [6]: 3
- Ave [7]: 1
- Inject 1 [7]: 1
- Inject 2 [7]: 1
- Inject 3 [7]: 1
- Ave [8]: 2
- Inject 1 [8]: 2
- Inject 2 [8]: 2
- Inject 3 [8]: 2
- Ave (Thrombospondin-1 (human)): 6
- Inject 1 (Thrombospondin-1 (human)): 6
- Inject 2 (Thrombospondin-1 (human)): 6
- Inject 3 (Thrombospondin-1 (human)): 6
- Ave [9]: 4
- Inject 1 [9]: 4
- Inject 2 [9]: 4
- Inject 3 [9]: 4
- Ave [10]: 4
- Inject 1 [10]: 3
- Inject 2 [10]: 4
- Inject 3 [10]: 4
- Ave [11]: 3
- Inject 1 [11]: 3
- Inject 2 [11]: 3
- Inject 3 [11]: 3
- Ave [12]: 1
- Inject 1 [12]: 1
- Inject 2 [12]: 1
- Inject 3 [12]: 1
- Ave (Calreticulin (human)): 4
- Inject 1 (Calreticulin (human)): 4
- Inject 2 (Calreticulin (human)): 4
- Inject 3 (Calreticulin (human)): 4
- Ave (Thymosin alpha-1 (human)): 5
- Inject 1 (Thymosin alpha-1 (human)): 4
- Inject 2 (Thymosin alpha-1 (human)): 5
- Inject 3 (Thymosin alpha-1 (human)): 7
- Ave (Serum albumin (human)): 8
- Inject 1 (Serum albumin (human)): 4
- Inject 2 (Serum albumin (human)): 7
- Inject 3 (Serum albumin (human)): 12
- Ave [13]: 3
- Inject 1 [13]: 3
- Inject 2 [13]: 3
- Inject 3 [13]: 3
- Ave (Nucleolin (human)): 2
- Inject 1 (Nucleolin (human)): 2
- Inject 2 (Nucleolin (human)): 2
- Inject 3 (Nucleolin (human)): 2
- Ave [14]: 3
- Inject 1 [14]: 3
- Inject 2 [14]: 3
- Inject 3 [14]: 3
- Ave [15]: 10
- Inject 1 [15]: 10
- Inject 2 [15]: 10
- Inject 3 [15]: 11
